Source: paper PMC10550955

Legend:
β-cas = test: SPR; homotypic: protein immobilised on CM5 or CM3 chip (~800-1000 RU), the same protein injected at increasing concentrations; BIAcore T200; 20 mM sodium phosphate buffer, pH 7.4; two-state model, one-state model for α-Syn and Chymo
γ-globulin = test: as above

Row | Kd (β-cas) | Kd (γ-globulin) | Substance
1 | < 500 nM |  | β-cas (natural protein)
2 |  | < 500 nM | γ-globulin (natural protein)
